Laboratory results from PMC6143433 (Biochemistry, 2018).

Target: the molecule itself
Assay: SEC

B1: MftE from M. ulcerans (enzyme, UniProt A0PM51 1-250, looked up)
chain: MNSSYHRRVPVLGELGTSTSSQLPSTWPSILIPLGSTEQHGPHLPLDTDTRIATAVGRAVATRMHGRLTQCQPGWLLAPPIAYGASGEHQSFAGTISIGAEALRVLLLEYGRSAACWADRLVFVNGHGGNVEALRGAVRQLRAEGRDAGWSACGSAGGDAHAGHTETSVLLHISPEVVLTDRLSAGNAAPLAELLPSLRRGGVAAVSPIGVLGDPTTATAVEGRRIFAEMVDDCVSRIARWTPGPDGMLT
stoichiometry N: 8
